From IntAct's records for PubMed 10898792

B1: Cell division control protein 13 (Saccharomyces cerevisiae), P32797 (parent)
chain: MDTLEEPECPPHKNRIFVSSSKDFEGYPSKAIVPVQFVALLTSIHLTETKCLLGFSNFERRGDQSQEDQYLIKLKFKDRGSERLARITISLLCQYFDIELPDLDSDSGASPTVILRDIHLERLCFSSCKALYVSKHGNYTLFLEDIKPLDLVSVISTISTKSTNSSKHSSSELISECDLNNSLVDIFNNLIEMNRDEKNRFKFVKLIHYDIELKKFVQDQQKVLSQKSKAAAINPFFVPNRLGIPYIESQNEFNSQLMTLNVDEPTTDISNMGEEMHDSADPIEDSDSSTTSSTGKYFSSKSYIQSQTPERKTSVPNNWHDDDSGSKRKRKLSFHSPNASSIRKAISYEQLSLASVGSVERLEGKIVGMNPPQFASINEFKYCTLKLYFTQLLPNVPDKVLVPGVNCIEIVIPTRERICELFGVLNCQSDKISDILLLEKPDRISVEVERILWDNDKTASPGMAVWSLKNISTDTQAQAQVQVPAQSSASIDPSRTRMSKMARKDPTIEFCQLGLDTFETKYITMFGMLVSCSFDKPAFISFVFSDFTKNDIVQNYLYDRYLIDYENKLELNEGFKAIMYKNQFETFDSKLRKIFNNGLRDLQNGRDENLSQYGIVCKMNIKVKMYNGKLNAIVRECEPVPHSQISSIASPSQCEHLRLFYQRAFKRIGESAISRYFEEYRRFFPIHRNGSHLAKLRFDEVKHEPKKSPTTPALAEHIPDLNADVSSFDVKFTDISSLLDSSARLPRPQQTHKSNTLYSCEGRIIAIEYHASDLCFHITNELPLLQTRGLAPERVLQLHIITSKNFAYFFNRSSAYLQRQPLEEKYTQLAQFLGHSFKFNITSSLTLFPDTTVALQIWCPIECTFRELQQQLAHPKVAAAPDSGSLDCAINATVNPLRLLAAQNGVTVKKEEDNDDDAGAVPTS
partner: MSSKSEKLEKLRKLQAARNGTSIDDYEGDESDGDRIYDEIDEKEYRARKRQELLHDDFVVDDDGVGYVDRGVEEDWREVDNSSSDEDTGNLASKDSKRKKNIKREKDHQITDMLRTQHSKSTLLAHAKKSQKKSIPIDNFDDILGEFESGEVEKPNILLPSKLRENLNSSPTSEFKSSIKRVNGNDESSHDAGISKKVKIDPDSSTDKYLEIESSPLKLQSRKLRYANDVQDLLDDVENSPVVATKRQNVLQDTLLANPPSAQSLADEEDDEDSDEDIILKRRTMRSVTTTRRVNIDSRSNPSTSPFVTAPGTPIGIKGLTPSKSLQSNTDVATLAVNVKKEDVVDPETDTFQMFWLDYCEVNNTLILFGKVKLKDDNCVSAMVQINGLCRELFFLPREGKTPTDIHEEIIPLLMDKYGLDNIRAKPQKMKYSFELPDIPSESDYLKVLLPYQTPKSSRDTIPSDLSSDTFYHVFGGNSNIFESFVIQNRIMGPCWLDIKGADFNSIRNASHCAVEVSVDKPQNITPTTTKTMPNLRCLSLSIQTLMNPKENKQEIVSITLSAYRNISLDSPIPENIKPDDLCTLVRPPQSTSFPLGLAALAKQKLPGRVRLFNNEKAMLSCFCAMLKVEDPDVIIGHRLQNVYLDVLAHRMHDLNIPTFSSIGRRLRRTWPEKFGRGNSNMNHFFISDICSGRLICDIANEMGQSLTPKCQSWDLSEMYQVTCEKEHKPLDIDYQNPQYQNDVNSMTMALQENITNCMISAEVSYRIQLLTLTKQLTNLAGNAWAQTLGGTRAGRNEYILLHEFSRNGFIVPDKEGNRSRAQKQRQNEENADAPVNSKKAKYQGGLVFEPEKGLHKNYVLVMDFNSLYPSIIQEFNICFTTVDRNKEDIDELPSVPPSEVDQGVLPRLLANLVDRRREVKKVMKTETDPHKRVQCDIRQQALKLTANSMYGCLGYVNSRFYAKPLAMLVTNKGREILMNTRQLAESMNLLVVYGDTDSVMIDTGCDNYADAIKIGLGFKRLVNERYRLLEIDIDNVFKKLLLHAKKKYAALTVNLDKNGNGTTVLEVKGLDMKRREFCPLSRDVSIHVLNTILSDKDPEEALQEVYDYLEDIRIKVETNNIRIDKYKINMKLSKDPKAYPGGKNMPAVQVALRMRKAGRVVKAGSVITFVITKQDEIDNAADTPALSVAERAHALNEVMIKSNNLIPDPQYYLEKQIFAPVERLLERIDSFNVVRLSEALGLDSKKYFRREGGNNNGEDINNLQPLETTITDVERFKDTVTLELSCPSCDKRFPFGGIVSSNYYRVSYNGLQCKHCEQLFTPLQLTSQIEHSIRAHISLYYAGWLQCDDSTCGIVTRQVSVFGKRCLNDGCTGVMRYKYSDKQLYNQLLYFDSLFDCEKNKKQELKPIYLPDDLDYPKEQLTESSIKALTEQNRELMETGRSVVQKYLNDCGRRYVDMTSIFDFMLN
B2: DNA polymerase alpha catalytic subunit A (Saccharomyces cerevisiae), P13382 (parent)
chain: B1 partner
partner: B1 chain
B3: Cell division control protein 13 (Saccharomyces cerevisiae), P32797 (parent)
chain: B1 chain
partner: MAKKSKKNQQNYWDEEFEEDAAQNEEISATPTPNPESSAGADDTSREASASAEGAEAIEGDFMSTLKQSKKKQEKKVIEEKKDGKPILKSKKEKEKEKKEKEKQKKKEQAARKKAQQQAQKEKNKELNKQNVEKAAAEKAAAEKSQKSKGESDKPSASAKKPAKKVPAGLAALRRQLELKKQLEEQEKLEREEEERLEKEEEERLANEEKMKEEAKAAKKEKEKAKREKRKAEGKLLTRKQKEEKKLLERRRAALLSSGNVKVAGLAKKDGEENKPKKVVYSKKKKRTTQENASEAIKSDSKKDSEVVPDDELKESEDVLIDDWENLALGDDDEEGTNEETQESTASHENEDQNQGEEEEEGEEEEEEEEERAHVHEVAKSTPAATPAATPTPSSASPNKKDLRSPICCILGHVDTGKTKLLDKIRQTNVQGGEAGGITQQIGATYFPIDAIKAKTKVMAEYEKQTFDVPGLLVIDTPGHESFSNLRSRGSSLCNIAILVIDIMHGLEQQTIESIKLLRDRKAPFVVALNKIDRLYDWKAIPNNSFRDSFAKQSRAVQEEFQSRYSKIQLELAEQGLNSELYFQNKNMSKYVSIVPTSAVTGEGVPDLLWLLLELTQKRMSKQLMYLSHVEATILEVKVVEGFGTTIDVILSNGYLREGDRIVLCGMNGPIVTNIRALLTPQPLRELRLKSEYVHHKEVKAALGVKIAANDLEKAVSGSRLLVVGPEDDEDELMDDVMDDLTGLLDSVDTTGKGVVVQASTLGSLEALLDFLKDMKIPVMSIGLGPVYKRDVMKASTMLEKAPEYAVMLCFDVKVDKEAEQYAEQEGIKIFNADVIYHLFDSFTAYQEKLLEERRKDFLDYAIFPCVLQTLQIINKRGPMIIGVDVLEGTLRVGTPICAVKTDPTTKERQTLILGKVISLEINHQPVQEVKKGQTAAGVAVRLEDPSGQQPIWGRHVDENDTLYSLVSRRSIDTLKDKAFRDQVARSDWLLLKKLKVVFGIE

Variants of: B1
Conditions: with dpola_yeast POL1, P13382

Effect of a mutation on the interaction, decreasing interaction:
I523V
I72T
C124R
Y382H
L392P
G243R
K50Q
K129R
L149S
D97F
S228P

Variants of: B2
Conditions: with cdc13_yeast CDC13, P32797

Effect of a mutation on the interaction, decreasing interaction:
P241T
D236N
E238K

Variants of: B3
Conditions: with if2p_yeast FUN12, P39730

Effect of a mutation on the interaction, decreasing interaction:
I72T
G243R
K129R
